Source: patent publication US12312411 (Takeda / Millennium, dated 2025)

Experiments:
[1] = target: T1, human CD38 on human multiple myeloma MOLP-8 cells (human, UniProt P28907 1-300); test: flow cytometry, IgG1 at 100 nM on MOLP-8 cells, MFI over secondary-only control
[2] = target: cynomolgus CD38 on cells expressing recombinant cynomolgus CD38 (cynomolgus, UniProt Q5VAN0 1-301)
[3] = target: T1, human CD38 on human multiple myeloma …; test: cell-based or functional assay
[4] = target: T1, human CD38 on human multiple myeloma …; test: flow cytometry titration of IgG1 on MOLP-8 cells, nonlinear fit
[5] = target: recombinant human CD38 (purified, plate-coated) (human, UniProt P28907 43-300); test: ELISA, plate-coated recombinant CD38, scFv-SLTA fusion titrated
[6] = target: recombinant cynomolgus monkey CD38 (purified, plate-coated) (cynomolgus, UniProt Q5VAN0 44-301); test: ELISA, plate-coated recombinant cynomolgus CD38, scFv-SLTA fusion titrated

Binder | FOB (fold-over-background of MFI) [1] | FOB (fold-over-background of MFI) [2] | % ADCC (mean) [3] | % CDC (mean) [3] | Kd [4] | Kd [5] | binding result [6]
CD38TM6 formatted into human IgG1 (antibody, V domains shown) VH: EVQLLESGGGLVQPGGSLRLSCAASGFTFDDYGMTWVRQAPGKGLEWVSGINWNGGSTGYADSVKGRFTISRDNSKNTLYLQMNSLRAEDTAVYYCARGGLFHDSSGYYFGHWGQGTLVTVSS VL: QSVLTQPPSASGTPGQRVTISCSGSSSNIGNSYVSWYQQLPGTAPKLLIYRNNQRPSGVPDRFSGSKSGTSASLAISGLRSEDEADYYCSAWDDNLSVLFGGGTKLTVL | 104 fold over background | 176 fold over background | 50.4% | 34.3% | 4.6 nM | – | –
CD38 targeting reference molecule #1 (CD38TR1) scFv fused to Shiga toxin A subunit (CD38TR1-SLTA) (scFv) MKEFTLDFSTAKTYVDSLNVIRSAIGTPLQTISSGGTSLLMIDSGSGDNLFAVDVRGIDPEEGRFNNLRLIVERNNLYVTGFVNRTNNVFYRFADFSHVTFPGTTAVTLSGDSSYTTLQRVAGISRTGMQINRHSLTTSYLDLMSHSGTSLTQSVARAMLRFVTVTAEALRFRQIQRGFRTTLDDLSGRSYVMTAEDVDLTLNWGRLSSVLPDYHGQDSVRVGRISFGSINAILGSVALILNCHHHASAVAAEFPKPSTPPGSSGGAPDIQMTQSPSSLSASVGDRVTITCKASEDIYNRLTWYQQKPGKAPKLLISGATSLETGVPSRFSGSGSGTDFTFTISSLQPEDIATYYCQQYWSNPYTFGQGTKVEIKGGGGSQVQLQESGPGLVRPSQTLSLTCTVSGFSLTSYGVHWVRQPPGRGLEWIGVMWRGGSTDYNAAFMSRLNITKDNSKNQVSLRLSSVTAADTAVYYCAKSMITTGFVMDSWGQGSLVTVSS | – | – | – | – | – | 7.7 ng/mL | no binding
CD38TM3 formatted into human IgG1 (antibody, V domains shown) VH: QVQLVQSGAEVKKPGESLKISCKGSGYSFTSYWIGWVRQMPGKGLEWMGIIYPGDSDTRYSPSFQGQVTISADKSISTAYLQWSSLKASDTAMYYCARGPSTGFWSGNYFDYWGQGTLVTVSS VL: QTVVTQEPSLTVSPGETVTLTCASSTGAVTSGFYPNWFQQKPGQAPRALIYATNNKYSWTPARFSGSLLGDKAALTLSRVQPEDEADYYCLVYYDGAWVFGGGTKLTVLG | – | 528 fold over background | – | – | – | – | –
CD38TM5 formatted into human IgG1 (antibody, V domains shown) VH: EVQLLESGGGLVQPGGSLRLSCAASGFTFSDYYMNWIRQAPGKGLEWVSSISSSSSYIYYADSVKGRFTISRDNSKNTLYLQMNSLRAEDTAVYYCATEGPYYLYGFDIWGQGTLVTVSS VL: QSVLTQPPSASGTPGQRVTISCSGSSSNIGSNYVYWYQQLPGTAPKLLIYGNSNRPSGVPDRFSGSKSGTSASLAISGLRSEDEADYYCQSYDNTLSGVIFGGGTKLTVLG | 550 fold over background | 104 fold over background | 35.2% | 4.7% | 34 nM | – | –
CD38TM2 formatted into human IgG1 (antibody, V domains shown) VH: EVQLLESGGGLVQPGGSLRLSCAASGFTFSSYWMHWVRQAPGKGLEWVSAISGSGGGTFYADSVKGRFTISRDNSKNTLYLQMNSLRAEDTAVYYCAREGETSFGLDVWGQGTLVTVSS VL: QSVLTQPPSASGTPGQRVTISCSGSSSNIGGNYVYWYQQLPGTAPKLLIYRNNQRPSGVPDRFSGSKSGTSASLAISGLRSEDEADYYCQSYDSSLSVSVFGGGTKLTVLG | – | 272 fold over background | – | – | – | – | –
CD38TM1 formatted into human IgG1 (antibody, V domains shown) VH: EVQLLESGGGLVQPGGSLRLSCAASGFTFSDYYMSWVRQAPGKGLEWVSAISGSGGSTYYADSVKGRFTISRDNSKNTLYLQMNSLRAEDTAVYYCAREHSNYFYGMDVWGQGTLVTVSS VL: QSVLTQPPSASGTPGQRVTISCSGSSSNIGSNYVYWYQQLPGTAPKLLIYGNSNRPSGVPDRFSGSKSGTSASLAISGLRSEDEADYYCQSYDSSLSGSGVFGGGTKLTVLG | – | – | 29% | 15% | 32 nM | – | –
